Blank lines part the entries; values can stand above or below the binder they belong to. Bridges are numbered along the chain shown (N, C = ends). [ ]: non-standard residue; d: D form. NMeK = CN[C@@H](CCCCN)C(=O)O; Abu = CC[C@H](N)C(=O)O; AEA = NCCOCC(=O)O
Experiments:
IL23R_huFC [1] = molecular target: T1, IL23R_huFC (human, UniProt Q5VWK5 24-353); experiment: IL23-IL23R competitive ELISA
T1 sequence (looked up): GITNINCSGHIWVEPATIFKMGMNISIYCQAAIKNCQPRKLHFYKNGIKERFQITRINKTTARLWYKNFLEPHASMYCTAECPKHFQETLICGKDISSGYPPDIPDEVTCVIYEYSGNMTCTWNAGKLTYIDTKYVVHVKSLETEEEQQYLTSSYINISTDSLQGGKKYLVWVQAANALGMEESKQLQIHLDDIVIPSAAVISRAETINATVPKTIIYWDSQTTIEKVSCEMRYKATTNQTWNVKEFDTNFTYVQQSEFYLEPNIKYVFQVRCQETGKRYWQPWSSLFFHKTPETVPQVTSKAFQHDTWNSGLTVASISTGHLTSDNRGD

IL23R_huFC [2] = molecular target: T2, IL23R_huFC (human, UniProt Q5VWK5 24-353); experiment: IL23-IL23R competitive binding ELISA
T2 sequence (looked up): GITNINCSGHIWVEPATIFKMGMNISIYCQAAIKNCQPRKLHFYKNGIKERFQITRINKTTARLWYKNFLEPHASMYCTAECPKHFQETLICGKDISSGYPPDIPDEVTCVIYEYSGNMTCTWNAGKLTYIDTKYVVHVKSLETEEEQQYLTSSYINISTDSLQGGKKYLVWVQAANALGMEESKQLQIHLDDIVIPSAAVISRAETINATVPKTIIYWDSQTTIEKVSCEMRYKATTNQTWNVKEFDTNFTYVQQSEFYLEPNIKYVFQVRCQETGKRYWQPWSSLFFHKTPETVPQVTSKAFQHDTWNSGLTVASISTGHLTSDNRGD

[3] = molecular target: T3, IL-23R on human cells (IL-23R-expressing DB cells; human NK cells) (human, UniProt Q5VWK5 24-629); experiment: cell-based or functional assay
T3 sequence (looked up): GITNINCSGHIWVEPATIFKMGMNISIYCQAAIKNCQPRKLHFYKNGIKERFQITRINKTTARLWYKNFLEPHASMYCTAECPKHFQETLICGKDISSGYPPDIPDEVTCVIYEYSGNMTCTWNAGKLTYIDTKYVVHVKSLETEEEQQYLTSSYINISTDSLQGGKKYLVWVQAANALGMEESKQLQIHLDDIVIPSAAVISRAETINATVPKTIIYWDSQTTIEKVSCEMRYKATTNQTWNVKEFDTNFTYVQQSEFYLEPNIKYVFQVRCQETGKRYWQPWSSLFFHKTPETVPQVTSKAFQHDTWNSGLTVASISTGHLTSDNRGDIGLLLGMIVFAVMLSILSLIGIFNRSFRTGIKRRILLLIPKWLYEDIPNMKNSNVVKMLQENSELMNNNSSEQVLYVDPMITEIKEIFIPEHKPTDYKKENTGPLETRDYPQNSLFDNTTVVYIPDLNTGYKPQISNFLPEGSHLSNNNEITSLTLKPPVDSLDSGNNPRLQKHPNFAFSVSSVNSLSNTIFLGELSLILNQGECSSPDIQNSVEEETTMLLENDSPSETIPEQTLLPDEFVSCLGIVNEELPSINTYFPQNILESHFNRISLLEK

IL23R_huFC [4] = molecular target: T4, IL23R_huFC (human, UniProt Q5VWK5 24-353); experiment: human ELISA vs IL-23
T4 sequence (looked up): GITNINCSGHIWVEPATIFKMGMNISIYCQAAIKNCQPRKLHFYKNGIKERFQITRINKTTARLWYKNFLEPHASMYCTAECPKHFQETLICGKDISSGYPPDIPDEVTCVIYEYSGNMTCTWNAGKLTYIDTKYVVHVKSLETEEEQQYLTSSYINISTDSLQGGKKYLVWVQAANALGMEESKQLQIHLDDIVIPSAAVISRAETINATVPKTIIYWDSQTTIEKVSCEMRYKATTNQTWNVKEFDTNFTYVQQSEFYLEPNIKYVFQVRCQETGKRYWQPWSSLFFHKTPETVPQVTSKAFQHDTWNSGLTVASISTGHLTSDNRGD

Rat IL-23R_huFC [5] = molecular target: Rat IL-23R_huFC (rat); experiment: rat ELISA vs IL-23
Rat IL-23R_huFC [6] = molecular target: T5, Rat IL-23R_huFC (rat, UniProt F1LX96 39-369); experiment: rat IL-23R competitive binding ELISA
T5 sequence: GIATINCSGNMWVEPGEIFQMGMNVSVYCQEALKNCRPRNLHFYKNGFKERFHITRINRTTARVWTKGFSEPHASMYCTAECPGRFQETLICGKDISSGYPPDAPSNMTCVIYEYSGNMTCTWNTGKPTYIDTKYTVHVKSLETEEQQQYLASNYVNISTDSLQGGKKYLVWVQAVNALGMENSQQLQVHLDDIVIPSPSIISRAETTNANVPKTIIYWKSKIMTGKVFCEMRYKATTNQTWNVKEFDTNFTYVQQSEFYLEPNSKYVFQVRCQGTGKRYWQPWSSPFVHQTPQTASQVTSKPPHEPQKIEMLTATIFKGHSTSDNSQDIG

IL-23R on DB cells = molecular target: T6, IL-23R on DB cells (human, UniProt Q5VWK5 24-629); experiment: cell-based or functional assay
T6 sequence (looked up): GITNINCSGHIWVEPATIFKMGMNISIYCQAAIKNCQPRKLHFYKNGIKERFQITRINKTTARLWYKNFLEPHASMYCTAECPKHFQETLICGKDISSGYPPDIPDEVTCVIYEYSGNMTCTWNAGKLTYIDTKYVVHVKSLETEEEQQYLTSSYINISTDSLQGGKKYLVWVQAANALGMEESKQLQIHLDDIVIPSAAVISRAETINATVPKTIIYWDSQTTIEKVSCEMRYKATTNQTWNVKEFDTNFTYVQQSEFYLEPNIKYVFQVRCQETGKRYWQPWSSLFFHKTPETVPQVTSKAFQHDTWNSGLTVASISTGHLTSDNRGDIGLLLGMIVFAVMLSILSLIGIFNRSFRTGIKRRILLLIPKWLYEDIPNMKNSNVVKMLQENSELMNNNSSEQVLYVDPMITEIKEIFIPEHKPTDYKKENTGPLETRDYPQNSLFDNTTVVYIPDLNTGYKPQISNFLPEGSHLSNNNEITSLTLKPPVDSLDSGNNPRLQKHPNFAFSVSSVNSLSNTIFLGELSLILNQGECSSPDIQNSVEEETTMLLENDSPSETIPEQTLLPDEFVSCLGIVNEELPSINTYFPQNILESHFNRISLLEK

IC50 (IL23R_huFC [1]): ~6000 nM
Binder: CADWVCYFXXFGXK (not fully specified; Ac-; [Phe(CONH2)]; [Orn]; [Dap]; [AEA]; [(D)Lys]; -NH2) [Ac-CADWVCY-[Phe(CONH2)]-[Orn]-[Dap]-FG-[AEA]-[(D)Lys]-NH2]

IC50 (IL23R_huFC [1]): 30000 nM
Binder: CADWVCYFXXFGXK (not fully specified; Ac-; [hPhe]; [Orn]; [Dap]; [AEA]; [(D)Lys]; -NH2) [Ac-CADWVCY-[hPhe]-[Orn]-[Dap]-FG-[AEA]-[(D)Lys]-NH2]

IC50 (IL23R_huFC [2]): 800 nM
Binder: CQTWQCYWXLNG (Ac; Z as printed (not explained); NH2) [Ac-CQTWQCYWZ-LNG-NH2]

IC50 (IL23R_huFC [1]): 7570 nM
Binder: Ac-ARTWQ[MeCys]YWRKFG[AEA][dK]-NH2 (not fully specified; printed as Ac-ARTWQ-[MeCys]-YWRKFG-[AEA]-[(D)Lys]-NH2) [Ac-ARTWQ-[MeCys]-YWRKFG-[AEA]-[(D)Lys]-NH2]

IC50 (IL23R_huFC [1]): 80 nM
Binder: Ac-C[NMeK]TWQCYWRVFG[AEA][dK]-NH2 (cysteine pairing not given here) [Ac-C-[N-MeLys]-TWQCYWRVFG-[AEA]-[(D)Lys]-NH2]

IC50 (IL23R_huFC [1]): 40 nM
Binder: Ac-CKTWQCYWRVFG[AEA][dK]-NH2 (cysteine pairing not given here) [Ac-CKTWQCYWRVFG-[AEA]-[(D)Lys]-NH2]

NK cell assay IC50 (IFNγ) [3]: < 10 nM
Binder: XNTWQXFXXKNN (as bracketed in name; Pen-Pen disulfide; DIG linker) [[Ac-[Pen]-NTWQ-[Pen]-[Phe(4-CONH2)]-[2-Nal]-[Aib]-KNN-NH2]2 DIG]

IC50 (IL23R_huFC [4]): 100 to 1000 nM
IC50 (Rat IL-23R_huFC [5]): 100 to 1000 nM
Binder: Ac-[Abu]QTWQCYWRENG[AEA][dK]-NH2 (thioether 1-6) [Ac-Cyclo-[[Abu]-QTWQC]-YWRENG-[AEA]-[(D)Lys]-NH2]

IC50 (Rat IL-23R_huFC [6]): 10 to 25 nM
B1: [Ac-[Pen]-QTWQ-[Pen]-[Phe(4-CONH2)]-[2-Nal]-[α-MeLys]-[Lys(Ac)]-NN-NH2]2DIG (peptide)
peptide: XQTWQXFXKKNN
modifications: Ac; Pen-Pen disulfide; Phe(4-CONH2); 2-Nal; α-MeLys; Lys(Ac); NH2; DIG linker joins the two subunits

IC50 (Rat IL-23R_huFC [6]): 10 to 25 nM
B2: [Ac-[Pen]-QTWQ-[Pen]-[Phe(4-OMe)]-[2-Nal]-[α-MeLys]-[Lys(Ac)]-NN-NH2]2DIG (peptide)
peptide: XQTWQXFXKKNN
modifications: Ac; Pen-Pen disulfide; Phe(4-OMe); 2-Nal; α-MeLys; Lys(Ac); NH2; DIG linker joins the two subunits

IC50 (Rat IL-23R_huFC [6]): 25 to 100 nM
B3: [Ac-[Pen]-QTWQ[Pen]-[Phe[4-(2-acetylaminoethoxy)]-[2-Nal]-K-[Lys(Ac)]-NN-NH2]2DIG (peptide)
peptide: XQTWQXFXKKNN
modifications: Ac; Pen-Pen disulfide; Phe[4-(2-acetylaminoethoxy)]; 2-Nal; Lys(Ac); NH2; DIG linker joins the two subunits

IC50 (Rat IL-23R_huFC [6]): 10 to 25 nM
B4: [Ac-[Pen]-QTWQ[Pen]-[Phe[4-(2-acetylaminoethoxy)]-[2-Nal]-[α-MeVal]-KNN-NH2]2DIG (peptide)
peptide: XQTWQXFXVKNN
modifications: not fully specified; Ac; Pen-Pen disulfide; Phe[4-(2-acetylaminoethoxy)]; 2-Nal; α-MeVal; NH2; DIG linker joins the two subunits

IC50 (IL23R_huFC [2]): ~6000 nM
Binder: CQTWQCXWXENG (not fully specified; Ac; X7 = Cha; X9 = hLeu; NH2) [Ac-CQTWQC-[Cha]-W-[hLeu]-ENG-NH2]

pStat3 HTRF IC50 (IL-23R on DB cells): 76 nM
Binder: CQTWQCYWXENG (not fully specified; Ac; Ogl; NH2) [Ac-CQTWQCYW-[Ogl]-ENG-NH2]

NK cell assay IC50 (IFNγ) [3]: < 10 nM
Binder: XNTWQXFXXKNN (as bracketed in name; Pen-Pen disulfide) [Ac-[Pen]-NTWQ-[Pen]-[Phe]4-(2-aminoethoxy)]-[2-Nal]-[Aib]-[Lys(Ac)]-NN-NH2]

Source: patent US20190300590A1 (PROTAGONIST THERAPEUTICS, published 2019)
